In the supplement of paper PMC7125110:
± gives the standard error. For some assays here: This sample holds only a part of the variants without activity.

B1: glmS ribozyme (parent)
chain: AUAAAAGCGCCAGAACUACAGAAAUGUAGUUGACGAGGAGGAGGUUUAUCGAAUUUUCGGCGGAUGCCUCCAAA

How the values were obtained:
Conditions in all cases: with glucosamine-6-phosphate
glucosamine-6-phosphate [1] = variants of: B1; test: kcat; higher = faster cleavage; RNA array
Outline: (§1)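 Barcoded glmS ribozyme variants on sequenced MiSeq chips were transcribed in situ by E. coli RNA polymerase and tracked through a hybridised Cy3 probe at 37 °C. Glucosamine-6-phosphate (40 μM to 10 mM) in HEPES/KCl/Mg(OAc)2 buffer was flowed in, and tiles were imaged over ~14 h. Signals were normalised to baseline and to non-cleaving reference variants; per-tile medians were fit to one- or two-exponential decays to give kobs. kcat and KM came from weighted Michaelis–Menten fits across concentrations.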

glucosamine-6-phosphate [2] = variants of: B1; test: KM; higher = weaker cofactor use; RNA array
Outline: as §1

glucosamine-6-phosphate [3] = variants of: B1; test: self-cleavage kobs at 40 uM GlcN6P; higher = faster cleavage; RNA array
Outline: as §1

glucosamine-6-phosphate [4] = variants of: B1; test: self-cleavage kobs at 160 uM GlcN6P; higher = faster cleavage; RNA array
Outline: as §1

glucosamine-6-phosphate [5] = variants of: B1; test: self-cleavage kobs at 640 uM GlcN6P; higher = faster cleavage; RNA array
Outline: as §1

glucosamine-6-phosphate [6] = variants of: B1; test: self-cleavage kobs at 2500 uM GlcN6P; higher = faster cleavage; RNA array
Outline: as §1

glucosamine-6-phosphate [7] = variants of: B1; test: self-cleavage kobs at 10000 uM GlcN6P; higher = faster cleavage; RNA array
Outline: as §1

## G40U C70U
glucosamine-6-phosphate [1]
  kcat: 0.00235 ± 0.00039 s⁻¹
glucosamine-6-phosphate [2]
  KM: 2.2 ± 0.51 mM
glucosamine-6-phosphate [3]
  self-cleavage kobs at 40 uM GlcN6P: 5.55e-05 ± 7.2e-06 s⁻¹
glucosamine-6-phosphate [4]
  self-cleavage kobs at 160 uM GlcN6P: 0.000139 ± 1.4e-05 s⁻¹
glucosamine-6-phosphate [5]
  self-cleavage kobs at 640 uM GlcN6P: 0.000566 ± 6.5e-05 s⁻¹
glucosamine-6-phosphate [6]
  self-cleavage kobs at 2500 uM GlcN6P: 0.00132 ± 0.00013 s⁻¹
glucosamine-6-phosphate [7]
  self-cleavage kobs at 10000 uM GlcN6P: 0.00186 ± 0.0002 s⁻¹

## C11U U65G C68U
glucosamine-6-phosphate [1]
  kcat: 6.35e-05 ± 2.3e-05 s⁻¹
glucosamine-6-phosphate [6]
  self-cleavage kobs at 2500 uM GlcN6P: 0.000106 ± 3.6e-05 s⁻¹
glucosamine-6-phosphate [7]
  self-cleavage kobs at 10000 uM GlcN6P: 5.53e-05 ± 1.2e-05 s⁻¹

## U54A C58G
glucosamine-6-phosphate [1]
  kcat: 0.000169 ± 2.8e-05 s⁻¹
glucosamine-6-phosphate [2]
  KM: 3.66 ± 1.7 mM
glucosamine-6-phosphate [3]
  self-cleavage kobs at 40 uM GlcN6P: < 1e-05 s⁻¹
glucosamine-6-phosphate [6]
  self-cleavage kobs at 2500 uM GlcN6P: 7.4e-05 ± 2.3e-05 s⁻¹
glucosamine-6-phosphate [7]
  self-cleavage kobs at 10000 uM GlcN6P: 0.000123 ± 2.1e-05 s⁻¹

## U54A C58A
glucosamine-6-phosphate [1]
  kcat: 0.000802 ± 0.00016 s⁻¹
glucosamine-6-phosphate [2]
  KM: 5.45 ± 1.7 mM
glucosamine-6-phosphate [4]
  self-cleavage kobs at 160 uM GlcN6P: 2.83e-05 ± 1.3e-05 s⁻¹
glucosamine-6-phosphate [5]
  self-cleavage kobs at 640 uM GlcN6P: 9.65e-05 ± 1.3e-05 s⁻¹
glucosamine-6-phosphate [6]
  self-cleavage kobs at 2500 uM GlcN6P: 0.000217 ± 2.9e-05 s⁻¹
glucosamine-6-phosphate [7]
  self-cleavage kobs at 10000 uM GlcN6P: 0.000547 ± 5.7e-05 s⁻¹

## U49C C70G
glucosamine-6-phosphate [1]
  kcat: 1.42e-05 ± 2.5e-06 s⁻¹
glucosamine-6-phosphate [7]
  self-cleavage kobs at 10000 uM GlcN6P: < 1e-05 s⁻¹

## U57A U69G
glucosamine-6-phosphate [1]
  kcat: 4.58e-05 ± 6.6e-06 s⁻¹
glucosamine-6-phosphate [4]
  self-cleavage kobs at 160 uM GlcN6P: 3.35e-05 ± 1.6e-05 s⁻¹
glucosamine-6-phosphate [5]
  self-cleavage kobs at 640 uM GlcN6P: 5.15e-05 ± 1.3e-05 s⁻¹
glucosamine-6-phosphate [6]
  self-cleavage kobs at 2500 uM GlcN6P: 3.88e-05 ± 1.3e-05 s⁻¹

## U31A C58A
glucosamine-6-phosphate [1]
  kcat: 0.00103 ± 0.00024 s⁻¹
glucosamine-6-phosphate [7]
  self-cleavage kobs at 10000 uM GlcN6P: 0.000242 ± 3.7e-05 s⁻¹

## A15G G29C U31C A39U
glucosamine-6-phosphate [1]
  kcat: 0.000143 ± 2.1e-06 s⁻¹
glucosamine-6-phosphate [2]
  KM: 4.65 ± 0.16 mM
glucosamine-6-phosphate [6]
  self-cleavage kobs at 2500 uM GlcN6P: 5.02e-05 ± 1.3e-05 s⁻¹
glucosamine-6-phosphate [7]
  self-cleavage kobs at 10000 uM GlcN6P: 9.79e-05 ± 1.4e-05 s⁻¹

## G59A C67A
glucosamine-6-phosphate [1]
  kcat: 1.53e-05 ± 3.7e-06 s⁻¹

## G40U U55A
glucosamine-6-phosphate [1]
  kcat: 0.00366 ± 0.0016 s⁻¹
glucosamine-6-phosphate [3]
  self-cleavage kobs at 40 uM GlcN6P: 0.00026 ± 5.9e-05 s⁻¹
glucosamine-6-phosphate [4]
  self-cleavage kobs at 160 uM GlcN6P: 0.000217 ± 5.8e-05 s⁻¹
glucosamine-6-phosphate [5]
  self-cleavage kobs at 640 uM GlcN6P: 0.000764 ± 0.00022 s⁻¹
glucosamine-6-phosphate [6]
  self-cleavage kobs at 2500 uM GlcN6P: 0.00204 ± 0.00041 s⁻¹
glucosamine-6-phosphate [7]
  self-cleavage kobs at 10000 uM GlcN6P: 0.00304 ± 0.00059 s⁻¹

## C10U U31A
glucosamine-6-phosphate [1]
  kcat: 2.74e-05 ± 1e-06 s⁻¹
glucosamine-6-phosphate [2]
  KM: 5.12 ± 0.38 mM

## A6U U31C
glucosamine-6-phosphate [1]
  kcat: 3.19e-05 ± 7.8e-07 s⁻¹
glucosamine-6-phosphate [2]
  KM: 0.647 ± 0.096 mM
glucosamine-6-phosphate [7]
  self-cleavage kobs at 10000 uM GlcN6P: 2.97e-05 ± 1.2e-05 s⁻¹

## A14C A15G
glucosamine-6-phosphate [1]
  kcat: 0.00631 ± 0.0025 s⁻¹
glucosamine-6-phosphate [2]
  KM: 6.25 ± 2.9 mM
glucosamine-6-phosphate [3]
  self-cleavage kobs at 40 uM GlcN6P: 5.61e-05 ± 7.9e-06 s⁻¹
glucosamine-6-phosphate [4]
  self-cleavage kobs at 160 uM GlcN6P: 0.000127 ± 1.8e-05 s⁻¹
glucosamine-6-phosphate [5]
  self-cleavage kobs at 640 uM GlcN6P: 0.000597 ± 6.6e-05 s⁻¹
glucosamine-6-phosphate [6]
  self-cleavage kobs at 2500 uM GlcN6P: 0.00192 ± 0.00022 s⁻¹
glucosamine-6-phosphate [7]
  self-cleavage kobs at 10000 uM GlcN6P: 0.00369 ± 0.00064 s⁻¹

## A15G G37U U54A U55A G60C C68G
glucosamine-6-phosphate [1]
  kcat: 2.16e-05 ± 6.5e-06 s⁻¹

## C16G G40A
glucosamine-6-phosphate [1]
  kcat: 0.000334 ± 0.00011 s⁻¹
glucosamine-6-phosphate [5]
  self-cleavage kobs at 640 uM GlcN6P: 0.000114 ± 2.6e-05 s⁻¹
glucosamine-6-phosphate [6]
  self-cleavage kobs at 2500 uM GlcN6P: 0.000473 ± 0.00011 s⁻¹
glucosamine-6-phosphate [7]
  self-cleavage kobs at 10000 uM GlcN6P: 0.00027 ± 5.7e-05 s⁻¹

## A12U G44A
glucosamine-6-phosphate [1]
  kcat: 0.00153 ± 0.00047 s⁻¹
glucosamine-6-phosphate [2]
  KM: 2.2 ± 0.96 mM
glucosamine-6-phosphate [4]
  self-cleavage kobs at 160 uM GlcN6P: 8.78e-05 ± 1.3e-05 s⁻¹
glucosamine-6-phosphate [5]
  self-cleavage kobs at 640 uM GlcN6P: 0.000437 ± 5.9e-05 s⁻¹
glucosamine-6-phosphate [6]
  self-cleavage kobs at 2500 uM GlcN6P: 0.00103 ± 0.00013 s⁻¹
glucosamine-6-phosphate [7]
  self-cleavage kobs at 10000 uM GlcN6P: 0.000973 ± 0.0002 s⁻¹

## U55G A64C
glucosamine-6-phosphate [1]
  kcat: 0.000152 ± 1.4e-05 s⁻¹
glucosamine-6-phosphate [2]
  KM: 1.21 ± 0.35 mM
glucosamine-6-phosphate [5]
  self-cleavage kobs at 640 uM GlcN6P: 5.93e-05 ± 1.7e-05 s⁻¹
glucosamine-6-phosphate [6]
  self-cleavage kobs at 2500 uM GlcN6P: 9.39e-05 ± 1.5e-05 s⁻¹
glucosamine-6-phosphate [7]
  self-cleavage kobs at 10000 uM GlcN6P: 0.000143 ± 2e-05 s⁻¹
